Data reported in patent publication US20220017591A1 (AstraZeneca / MedImmune, published 2022).
Substitutions are numbered along the chain they refer to. Blank lines part the entries; values can stand above or below the binder they belong to.

What was measured:
Assay in all cases: cell-based or functional assay
human RXFP1 = target: T1, human RXFP1 (human, UniProt Q9HBX9 1-757)
T1 sequence (looked up): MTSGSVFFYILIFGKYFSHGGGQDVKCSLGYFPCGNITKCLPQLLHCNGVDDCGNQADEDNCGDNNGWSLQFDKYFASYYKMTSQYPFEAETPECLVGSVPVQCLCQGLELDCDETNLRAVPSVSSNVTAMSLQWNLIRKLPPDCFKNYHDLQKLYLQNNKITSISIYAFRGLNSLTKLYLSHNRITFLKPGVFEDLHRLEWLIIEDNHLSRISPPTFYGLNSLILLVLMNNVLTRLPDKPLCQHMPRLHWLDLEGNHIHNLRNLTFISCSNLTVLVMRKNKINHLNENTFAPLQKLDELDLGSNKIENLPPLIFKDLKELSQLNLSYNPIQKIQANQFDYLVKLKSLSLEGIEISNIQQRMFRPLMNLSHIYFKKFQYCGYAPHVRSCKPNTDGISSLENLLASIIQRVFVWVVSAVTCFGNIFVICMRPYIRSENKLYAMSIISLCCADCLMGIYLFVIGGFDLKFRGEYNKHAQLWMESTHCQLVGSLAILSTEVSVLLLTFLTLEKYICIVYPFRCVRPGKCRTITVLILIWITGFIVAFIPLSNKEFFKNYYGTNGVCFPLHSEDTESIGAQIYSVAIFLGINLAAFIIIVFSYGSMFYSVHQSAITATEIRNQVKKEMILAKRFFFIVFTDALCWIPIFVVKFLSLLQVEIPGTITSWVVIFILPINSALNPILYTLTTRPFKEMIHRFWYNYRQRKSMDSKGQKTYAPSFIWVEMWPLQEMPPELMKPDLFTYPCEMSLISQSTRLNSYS

mouse RXFP1 = target: T2, mouse RXFP1 (mouse, UniProt Q6R6I7 1-758)
T2 sequence (looked up): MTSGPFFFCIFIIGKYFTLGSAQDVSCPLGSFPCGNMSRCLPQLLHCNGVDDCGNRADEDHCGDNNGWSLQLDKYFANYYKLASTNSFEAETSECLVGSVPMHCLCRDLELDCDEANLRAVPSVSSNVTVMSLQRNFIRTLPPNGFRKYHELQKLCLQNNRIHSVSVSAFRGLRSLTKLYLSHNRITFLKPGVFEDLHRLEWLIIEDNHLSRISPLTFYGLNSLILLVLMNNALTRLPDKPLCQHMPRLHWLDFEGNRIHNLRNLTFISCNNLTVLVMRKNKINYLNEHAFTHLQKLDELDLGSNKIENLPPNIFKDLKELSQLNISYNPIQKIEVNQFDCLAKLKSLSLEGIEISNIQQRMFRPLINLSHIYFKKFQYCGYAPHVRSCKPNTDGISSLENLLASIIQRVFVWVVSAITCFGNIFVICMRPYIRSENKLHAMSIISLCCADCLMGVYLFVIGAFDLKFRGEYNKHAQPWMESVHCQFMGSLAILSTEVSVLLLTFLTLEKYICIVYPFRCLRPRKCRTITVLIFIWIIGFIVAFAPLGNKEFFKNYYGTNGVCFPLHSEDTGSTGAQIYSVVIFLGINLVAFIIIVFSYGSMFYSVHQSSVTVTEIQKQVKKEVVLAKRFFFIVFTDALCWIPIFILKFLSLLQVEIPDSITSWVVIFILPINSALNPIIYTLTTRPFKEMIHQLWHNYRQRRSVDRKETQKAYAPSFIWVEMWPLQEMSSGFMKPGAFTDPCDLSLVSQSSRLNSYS

human RXFP2 = human RXFP2 (human, UniProt Q8WXD0 1-754)
Chain of human RXFP2 (Q8WXD0 whole entry): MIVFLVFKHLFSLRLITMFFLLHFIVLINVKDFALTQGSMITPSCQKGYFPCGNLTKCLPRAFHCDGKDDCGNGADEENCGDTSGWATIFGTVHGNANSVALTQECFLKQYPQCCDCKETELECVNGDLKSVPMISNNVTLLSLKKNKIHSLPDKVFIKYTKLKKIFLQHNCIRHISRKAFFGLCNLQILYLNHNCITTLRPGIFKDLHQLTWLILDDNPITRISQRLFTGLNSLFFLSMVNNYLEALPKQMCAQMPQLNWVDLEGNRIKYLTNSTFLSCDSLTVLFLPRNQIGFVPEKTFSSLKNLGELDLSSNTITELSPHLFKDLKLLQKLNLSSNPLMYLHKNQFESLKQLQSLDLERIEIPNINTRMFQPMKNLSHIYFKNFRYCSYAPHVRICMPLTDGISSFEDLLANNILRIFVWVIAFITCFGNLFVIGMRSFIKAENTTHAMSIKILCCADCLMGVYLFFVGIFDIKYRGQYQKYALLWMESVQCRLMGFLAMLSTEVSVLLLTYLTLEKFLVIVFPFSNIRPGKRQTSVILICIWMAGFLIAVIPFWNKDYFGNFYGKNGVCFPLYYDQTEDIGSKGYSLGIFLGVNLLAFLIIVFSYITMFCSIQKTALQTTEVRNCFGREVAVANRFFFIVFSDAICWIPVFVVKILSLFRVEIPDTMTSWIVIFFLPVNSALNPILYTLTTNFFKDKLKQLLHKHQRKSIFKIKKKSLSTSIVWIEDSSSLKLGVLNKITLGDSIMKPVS

- EC50 hRXFP1 (M), cAMP assay (human RXFP1): 5.68e-11 M
- EC50 mRXFP1 (M), cAMP assay (mouse RXFP1): 4.9e-11 M
- EC50 hRXFP2 (M), cAMP assay (human RXFP2): 3.81e-08 M
B1: RELAX0082 (Fc fusion)
chain 1: DKTHTCPPCPAPEFEGGPSVFLFPPKPKDTLMISRTPEVTCVVVDVSHEDPEVKFNWYVDGVEVHNAKTKPREEQYNSTYRVVSVLTVLHQDWLNGKEYKCKVSNKALPASIEKTISKAKGQPREPQVYTLPPCREEMTKNQVSLWCLVKGFYPSDIAVEWESNGQPENNYKTTPPVLDSDGSFFLYSKLTVDKSRWQQGNVFSCSVMHEALHNHYTQKSLSLSPGGGGGSGGGGGSQLYSALANKCCHVGCTKRSLARFC
chain 2: DKTHTCPPCPAPEFEGGPSVFLFPPKPKDTLMISRTPEVTCVVVDVSHEDPEVKFNWYVDGVEVHNAKTKPREEQYNSTYRVVSVLTVLHQDWLNGKEYKCKVSNKALPASIEKTISKAKGQPREPQVCTLPPSREEMTKNQVSLSCAVKGFYPSDIAVEWESNGQPENNYKTTPPVLDSDGSFFLVSKLTVDKSRWQQGNVFSCSVMHEALHNHYTQKSLSLSPGGGGGSGGGGGSSWMEEVIKLCGRELVRAQIAICGMSTWS

- EC50 hRXFP1 (M), cAMP assay (human RXFP1): 1.88e-11 M
- EC50 mRXFP1 (M), cAMP assay (mouse RXFP1): 1.51e-11 M
- EC50 hRXFP2 (M), cAMP assay (human RXFP2): 3.39e-08 M
B2: RELAX0055 (Fc fusion)
chain 1: B1 chain 1 with G227A, G228P, G229A, G230P, S231A, G232P, G233A, G234P, G235A
chain 2: B1 chain 2 with G227A, G228P, G229A, G230P, S231A, G232P, G233A, G234P, G235A

- EC50 hRXFP1 (M), cAMP assay (human RXFP1): 4.51e-11 M
- EC50 mRXFP1 (M), cAMP assay (mouse RXFP1): 4.73e-11 M
- EC50 hRXFP2 (M), cAMP assay (human RXFP2): 4.92e-08 M
B3: RELAX0081 (Fc fusion)
chain 1: DKTHTCPPCPAPEFEGGPSVFLFPPKPKDTLMISRTPEVTCVVVDVSHEDPEVKFNWYVDGVEVHNAKTKPREEQYNSTYRVVSVLTVLHQDWLNGKEYKCKVSNKALPASIEKTISKAKGQPREPQVYTLPPCREEMTKNQVSLWCLVKGFYPSDIAVEWESNGQPENNYKTTPPVLDSDGSFFLYSKLTVDKSRWQQGNVFSCSVMHEALHNHYTQKSLSLSPGGGGGSGGGGSGGGGGSQLYSALANKCCHVGCTKRSLARFC
chain 2: DKTHTCPPCPAPEFEGGPSVFLFPPKPKDTLMISRTPEVTCVVVDVSHEDPEVKFNWYVDGVEVHNAKTKPREEQYNSTYRVVSVLTVLHQDWLNGKEYKCKVSNKALPASIEKTISKAKGQPREPQVCTLPPSREEMTKNQVSLSCAVKGFYPSDIAVEWESNGQPENNYKTTPPVLDSDGSFFLVSKLTVDKSRWQQGNVFSCSVMHEALHNHYTQKSLSLSPGGGGGSGGGGSGGGGGSSWMEEVIKLCGRELVRAQIAICGMSTWS

- EC50 hRXFP1 (M), cAMP assay (human RXFP1): 1.72e-09 M
- EC50 mRXFP1 (M), cAMP assay (mouse RXFP1): 8.22e-10 M
B4: RELAX0109 (Fc fusion)
chain 1: B3 chain 1
chain 2: DKTHTCPPCPAPEFEGGPSVFLFPPKPKDTLMISRTPEVTCVVVDVSHEDPEVKFNWYVDGVEVHNAKTKPREEQYNSTYRVVSVLTVLHQDWLNGKEYKCKVSNKALPASIEKTISKAKGQPREPQVYTLPPCREEMTKNQVSLWCLVKGFYPSDIAVEWESNGQPENNYKTTPPVLDSDGSFFLYSKLTVDKSRWQQGNVFSCSVMHEALHNHYTQKSLSLSPGAAPAPAPAPAPAPAGSSWMEEVIKLCGRELVRAQIAICGMSTWS

- EC50 hRXFP1 (M), cAMP assay (human RXFP1): 3.87e-11 M
- EC50 mRXFP1 (M), cAMP assay (mouse RXFP1): 3.27e-11 M
- EC50 hRXFP2 (M), cAMP assay (human RXFP2): 6.48e-08 M
B5: RELAX0056 (Fc fusion)
chain 1: DKTHTCPPCPAPEFEGGPSVFLFPPKPKDTLMISRTPEVTCVVVDVSHEDPEVKFNWYVDGVEVHNAKTKPREEQYNSTYRVVSVLTVLHQDWLNGKEYKCKVSNKALPASIEKTISKAKGQPREPQVYTLPPCREEMTKNQVSLWCLVKGFYPSDIAVEWESNGQPENNYKTTPPVLDSDGSFFLYSKLTVDKSRWQQGNVFSCSVMHEALHNHYTQKSLSLSPGAPAPAPAPAPAPAPAPAPAGSQLYSALANKCCHVGCTKRSLARFC
chain 2: DKTHTCPPCPAPEFEGGPSVFLFPPKPKDTLMISRTPEVTCVVVDVSHEDPEVKFNWYVDGVEVHNAKTKPREEQYNSTYRVVSVLTVLHQDWLNGKEYKCKVSNKALPASIEKTISKAKGQPREPQVCTLPPSREEMTKNQVSLSCAVKGFYPSDIAVEWESNGQPENNYKTTPPVLDSDGSFFLVSKLTVDKSRWQQGNVFSCSVMHEALHNHYTQKSLSLSPGAPAPAPAPAPAPAPAPAPAGSSWMEEVIKLCGRELVRAQIAICGMSTWS

- EC50 hRXFP1 (M), cAMP assay (human RXFP1): 5.34e-11 M
- EC50 mRXFP1 (M), cAMP assay (mouse RXFP1): 3.48e-11 M
- EC50 hRXFP2 (M), cAMP assay (human RXFP2): 1.2e-08 M
B6: RELAX0084 (Fc fusion)
chain 1: B5 chain 1
chain 2: DKTHTCPPCPAPEFEGGPSVFLFPPKPKDTLMISRTPEVTCVVVDVSHEDPEVKFNWYVDGVEVHNAKTKPREEQYNSTYRVVSVLTVLHQDWLNGKEYKCKVSNKALPASIEKTISKAKGQPREPQVCTLPPSREEMTKNQVSLSCAVKGFYPSDIAVEWESNGQPENNYKTTPPVLDSDGSFFLVSKLTVDKSRWQQGNVFSCSVMHEALHNHYTQKSLSLSPGGGGGSGGGGSGGGGSGGGGGSSWMEEVIKLCGRELVRAQIAICGMSTWS

- EC50 hRXFP1 (M), cAMP assay (human RXFP1): 2.81e-11 M
- EC50 mRXFP1 (M), cAMP assay (mouse RXFP1): 1.34e-11 M
- EC50 hRXFP2 (M), cAMP assay (human RXFP2): 2.42e-08 M
B7: RELAX0083 (Fc fusion)
chain 1: DKTHTCPPCPAPEFEGGPSVFLFPPKPKDTLMISRTPEVTCVVVDVSHEDPEVKFNWYVDGVEVHNAKTKPREEQYNSTYRVVSVLTVLHQDWLNGKEYKCKVSNKALPASIEKTISKAKGQPREPQVYTLPPCREEMTKNQVSLWCLVKGFYPSDIAVEWESNGQPENNYKTTPPVLDSDGSFFLYSKLTVDKSRWQQGNVFSCSVMHEALHNHYTQKSLSLSPGGGGGGSQLYSALANKCCHVGCTKRSLARFC
chain 2: DKTHTCPPCPAPEFEGGPSVFLFPPKPKDTLMISRTPEVTCVVVDVSHEDPEVKFNWYVDGVEVHNAKTKPREEQYNSTYRVVSVLTVLHQDWLNGKEYKCKVSNKALPASIEKTISKAKGQPREPQVCTLPPSREEMTKNQVSLSCAVKGFYPSDIAVEWESNGQPENNYKTTPPVLDSDGSFFLVSKLTVDKSRWQQGNVFSCSVMHEALHNHYTQKSLSLSPGGGGGGSSWMEEVIKLCGRELVRAQIAICGMSTWS

- EC50 hRXFP1 (M), cAMP assay (human RXFP1): 2.89e-11 M
- EC50 mRXFP1 (M), cAMP assay (mouse RXFP1): 1.59e-11 M
- EC50 hRXFP2 (M), cAMP assay (human RXFP2): 1.53e-08 M
B8: RELAX0054 (Fc fusion)
chain 1: DKTHTCPPCPAPEFEGGPSVFLFPPKPKDTLMISRTPEVTCVVVDVSHEDPEVKFNWYVDGVEVHNAKTKPREEQYNSTYRVVSVLTVLHQDWLNGKEYKCKVSNKALPASIEKTISKAKGQPREPQVCTLPPSREEMTKNQVSLSCAVKGFYPSDIAVEWESNGQPENNYKTTPPVLDSDGSFFLVSKLTVDKSRWQQGNVFSCSVMHEALHNHYTQKSLSLSPGAAPAPAPAPAPAPAGSQLYSALANKCCHVGCTKRSLARFC
chain 2: B4 chain 2
